# Test results: IntAct's records for PubMed 35512704
# B1: Mothers against decapentaplegic homolog 4 (Homo sapiens), Q13485 (parent)
# chain: MDNMSITNTPTSNDACLSIVHSLMCHRQGGESETFAKRAIESLVKKLKEKKDELDSLITAITTNGAHPSKCVTIQRTLDGRLQVAGRKGFPHVIYARLWRWPDLHKNELKHVKYCQYAFDLKCDSVCVNPYHYERVVSPGIDLSGLTLQSNAPSSMMVKDEYVHDFEGQPSLSTEGHSIQTIQHPPSNRASTETYSTPALLAPSESNATSTANFPNIPVASTSQPASILGGSHSEGLLQIASGPQPGQQQNGFTGQPATYHHNSTTTWTGSRTAPYTPNLPHHQNGHLQHHPPMPPHPGHYWPVHNELAFQPPISNHPAPEYWCSIAYFEMDVQVGETFKVPSSCPIVTVDGYVDPSGGDRFCLGQLSNVHRTEAIERARLHIGKGVQLECKGEGDVWVRCLSDHAVFVQSYYLDREAGRAPGDAVHKIYPSAYIKVFDLRQCHRQMQQQAATAQAAAAAQAAAVAGNIPGPGSVGGIAPAISLSAAAGIGVDDLRRLCILRMSFVKGWGPDYPRQSIKETPCWIEIHLHRALQLLDEVLHTMPIADPQPLD
# partner: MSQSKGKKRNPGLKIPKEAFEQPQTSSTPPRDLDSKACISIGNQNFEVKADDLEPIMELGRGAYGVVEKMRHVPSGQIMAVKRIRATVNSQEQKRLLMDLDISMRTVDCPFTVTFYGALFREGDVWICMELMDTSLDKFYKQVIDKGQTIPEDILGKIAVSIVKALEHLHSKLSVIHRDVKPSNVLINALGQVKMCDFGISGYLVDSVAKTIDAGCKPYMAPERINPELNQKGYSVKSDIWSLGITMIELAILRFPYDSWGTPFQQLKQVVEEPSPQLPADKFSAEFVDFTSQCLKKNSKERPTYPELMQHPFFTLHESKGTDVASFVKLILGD
# B2: Mothers against decapentaplegic homolog 4 (Homo sapiens), Q13485 (parent)
# chain: B1 chain
# partner: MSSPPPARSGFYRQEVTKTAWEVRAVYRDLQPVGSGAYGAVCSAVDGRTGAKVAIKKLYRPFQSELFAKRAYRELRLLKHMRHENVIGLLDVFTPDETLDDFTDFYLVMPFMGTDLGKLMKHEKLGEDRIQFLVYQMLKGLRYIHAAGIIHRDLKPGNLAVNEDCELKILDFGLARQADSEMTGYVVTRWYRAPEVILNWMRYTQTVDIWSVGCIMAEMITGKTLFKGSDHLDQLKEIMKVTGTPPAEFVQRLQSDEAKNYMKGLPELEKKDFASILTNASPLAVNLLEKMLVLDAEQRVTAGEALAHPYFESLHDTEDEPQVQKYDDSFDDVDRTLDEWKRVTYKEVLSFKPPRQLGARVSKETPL
# B3: Mothers against decapentaplegic homolog 4 (Homo sapiens), Q13485 (parent)
# chain: B1 chain
# partner: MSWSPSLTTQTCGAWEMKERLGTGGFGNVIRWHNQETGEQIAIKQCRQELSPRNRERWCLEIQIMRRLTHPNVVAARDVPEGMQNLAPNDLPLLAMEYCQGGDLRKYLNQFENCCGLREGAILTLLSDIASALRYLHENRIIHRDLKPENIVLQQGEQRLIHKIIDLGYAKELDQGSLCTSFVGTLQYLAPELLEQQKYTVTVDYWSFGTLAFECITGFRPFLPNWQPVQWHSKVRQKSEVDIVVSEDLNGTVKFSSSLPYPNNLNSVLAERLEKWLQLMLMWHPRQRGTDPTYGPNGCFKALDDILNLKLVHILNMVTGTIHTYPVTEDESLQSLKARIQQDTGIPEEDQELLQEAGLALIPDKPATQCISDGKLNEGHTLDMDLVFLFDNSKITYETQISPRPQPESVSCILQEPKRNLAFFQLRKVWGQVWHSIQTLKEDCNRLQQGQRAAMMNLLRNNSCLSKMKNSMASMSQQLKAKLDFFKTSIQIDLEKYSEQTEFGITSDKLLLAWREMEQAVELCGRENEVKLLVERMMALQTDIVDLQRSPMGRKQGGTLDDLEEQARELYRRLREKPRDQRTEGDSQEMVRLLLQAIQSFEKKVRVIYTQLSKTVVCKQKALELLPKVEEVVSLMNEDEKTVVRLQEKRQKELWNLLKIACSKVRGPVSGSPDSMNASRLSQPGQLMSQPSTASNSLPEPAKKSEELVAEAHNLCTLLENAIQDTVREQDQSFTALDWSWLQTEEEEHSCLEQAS
# B4: Mothers against decapentaplegic homolog 4 (Homo sapiens), Q13485 (parent)
# chain: B1 chain
# partner: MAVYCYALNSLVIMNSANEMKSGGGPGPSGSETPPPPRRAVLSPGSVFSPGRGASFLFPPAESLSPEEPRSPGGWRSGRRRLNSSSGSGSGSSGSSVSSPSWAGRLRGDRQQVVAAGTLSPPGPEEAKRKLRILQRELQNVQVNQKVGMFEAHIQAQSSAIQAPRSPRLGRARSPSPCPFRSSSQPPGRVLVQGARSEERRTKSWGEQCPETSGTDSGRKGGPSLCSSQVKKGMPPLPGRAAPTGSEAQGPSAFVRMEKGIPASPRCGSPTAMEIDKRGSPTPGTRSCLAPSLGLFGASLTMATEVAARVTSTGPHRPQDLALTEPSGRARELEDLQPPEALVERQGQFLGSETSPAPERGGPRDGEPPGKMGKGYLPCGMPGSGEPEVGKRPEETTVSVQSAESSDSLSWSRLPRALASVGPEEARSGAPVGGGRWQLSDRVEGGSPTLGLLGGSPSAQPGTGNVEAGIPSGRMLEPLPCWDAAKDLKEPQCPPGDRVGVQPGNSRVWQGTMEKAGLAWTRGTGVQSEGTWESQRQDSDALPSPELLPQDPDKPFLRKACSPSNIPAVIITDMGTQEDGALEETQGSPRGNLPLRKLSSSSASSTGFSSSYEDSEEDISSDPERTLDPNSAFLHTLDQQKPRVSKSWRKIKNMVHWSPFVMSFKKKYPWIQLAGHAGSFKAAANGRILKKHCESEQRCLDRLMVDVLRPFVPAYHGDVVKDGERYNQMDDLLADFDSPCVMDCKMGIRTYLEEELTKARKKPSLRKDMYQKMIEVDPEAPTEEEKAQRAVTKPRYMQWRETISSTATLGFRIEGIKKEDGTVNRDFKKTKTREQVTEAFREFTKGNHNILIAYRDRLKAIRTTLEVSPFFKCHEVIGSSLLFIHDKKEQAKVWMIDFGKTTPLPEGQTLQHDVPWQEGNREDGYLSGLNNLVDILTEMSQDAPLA
# B5: Mothers against decapentaplegic homolog 4 (Homo sapiens), Q13485 (parent)
# chain: B1 chain
# partner: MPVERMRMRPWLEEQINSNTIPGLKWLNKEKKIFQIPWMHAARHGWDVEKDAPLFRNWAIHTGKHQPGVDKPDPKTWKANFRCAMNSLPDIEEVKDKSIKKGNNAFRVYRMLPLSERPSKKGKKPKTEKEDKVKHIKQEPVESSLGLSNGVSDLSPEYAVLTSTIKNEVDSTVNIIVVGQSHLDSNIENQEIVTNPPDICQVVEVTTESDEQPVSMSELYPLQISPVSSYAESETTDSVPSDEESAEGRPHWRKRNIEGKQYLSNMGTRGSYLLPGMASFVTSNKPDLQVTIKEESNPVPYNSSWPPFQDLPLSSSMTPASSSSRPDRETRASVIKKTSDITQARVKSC
# B6: Mothers against decapentaplegic homolog 4 (Homo sapiens), Q13485 (parent)
# chain: B1 chain
# partner: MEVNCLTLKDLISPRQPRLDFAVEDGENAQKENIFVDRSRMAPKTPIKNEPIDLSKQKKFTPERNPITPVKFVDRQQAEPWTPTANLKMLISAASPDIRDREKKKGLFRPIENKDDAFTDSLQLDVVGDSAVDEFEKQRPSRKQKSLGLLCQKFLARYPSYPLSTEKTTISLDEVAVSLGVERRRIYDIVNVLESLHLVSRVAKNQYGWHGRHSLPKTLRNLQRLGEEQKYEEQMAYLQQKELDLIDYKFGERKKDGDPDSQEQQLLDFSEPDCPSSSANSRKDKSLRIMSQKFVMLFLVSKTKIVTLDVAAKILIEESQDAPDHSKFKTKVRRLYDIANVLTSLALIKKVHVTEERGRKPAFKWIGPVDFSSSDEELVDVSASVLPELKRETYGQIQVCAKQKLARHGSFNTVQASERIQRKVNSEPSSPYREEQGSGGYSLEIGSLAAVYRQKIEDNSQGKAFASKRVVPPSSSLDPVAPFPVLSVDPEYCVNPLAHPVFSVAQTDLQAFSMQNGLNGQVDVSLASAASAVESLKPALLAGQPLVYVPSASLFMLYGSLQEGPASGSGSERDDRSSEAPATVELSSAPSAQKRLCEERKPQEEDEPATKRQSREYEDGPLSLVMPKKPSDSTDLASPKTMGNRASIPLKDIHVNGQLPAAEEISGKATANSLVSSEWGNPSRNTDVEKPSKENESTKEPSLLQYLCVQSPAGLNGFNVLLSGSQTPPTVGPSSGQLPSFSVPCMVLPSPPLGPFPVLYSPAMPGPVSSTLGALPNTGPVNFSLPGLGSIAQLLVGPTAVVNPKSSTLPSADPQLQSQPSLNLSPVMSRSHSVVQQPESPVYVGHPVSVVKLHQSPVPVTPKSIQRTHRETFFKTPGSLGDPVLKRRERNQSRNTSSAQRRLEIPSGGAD
# B7: Mothers against decapentaplegic homolog 4 (Homo sapiens), Q13485 (parent)
# chain: B1 chain
# partner: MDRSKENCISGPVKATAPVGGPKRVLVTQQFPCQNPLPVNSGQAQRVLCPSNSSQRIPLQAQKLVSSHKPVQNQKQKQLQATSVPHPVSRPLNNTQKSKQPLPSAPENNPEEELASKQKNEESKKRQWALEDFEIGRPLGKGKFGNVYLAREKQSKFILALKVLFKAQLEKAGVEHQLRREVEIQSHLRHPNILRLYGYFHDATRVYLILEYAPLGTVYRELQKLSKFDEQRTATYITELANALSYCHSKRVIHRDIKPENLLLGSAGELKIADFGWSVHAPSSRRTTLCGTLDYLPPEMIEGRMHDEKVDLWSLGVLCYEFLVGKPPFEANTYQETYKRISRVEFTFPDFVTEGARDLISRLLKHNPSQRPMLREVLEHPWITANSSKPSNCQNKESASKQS
# Variants of: B1
# Settings: with mp2k6_human MAP2K6, P52564
row,effect of a mutation on the interaction,Variant
1,with no effect,G386D

# Variants of: B1
# Settings: with mp2k6_human MAP2K6, P52564
# Remark: another data set of the same source
row,effect of a mutation on the interaction,Variant
1,with no effect,D351H

# Variants of: B2
# Settings: with mk12_human MAPK12, P53778
row,effect of a mutation on the interaction,Variant
1,with no effect,G386D

# Variants of: B2
# Settings: with mk12_human MAPK12, P53778
# Remark: another data set of the same source
row,effect of a mutation on the interaction,Variant
1,with no effect,R361C

# Variants of: B2
# Settings: with mk12_human MAPK12, P53778
# Remark: another data set of the same source
row,effect of a mutation on the interaction,Variant
1,with no effect,R361H

# Variants of: B2
# Settings: with mk12_human MAPK12, P53778
# Remark: another data set of the same source
row,effect of a mutation on the interaction,Variant
1,with no effect,D351H

# Variants of: B3
# Settings: with ikkb_human IKBKB
row,effect of a mutation on the interaction,Variant
1,with no effect,D351H

# Variants of: B3
# Settings: with ikkb_human IKBKB
# Remark: another data set of the same source
row,effect of a mutation on the interaction,Variant
1,with no effect,G386D

# Variants of: B3
# Settings: with ikkb_human IKBKB
# Remark: another data set of the same source
row,effect of a mutation on the interaction,Variant
1,with no effect,R361C

# Variants of: B3
# Settings: with ikkb_human IKBKB
# Remark: another data set of the same source
row,effect of a mutation on the interaction,Variant
1,with no effect,R361H

# Variants of: B4
# Settings: with ip3kb_human ITPKB
row,effect of a mutation on the interaction,Variant
1,with no effect,D351H

# Variants of: B4
# Settings: with ip3kb_human ITPKB
# Remark: another data set of the same source
row,effect of a mutation on the interaction,Variant
1,with no effect,R361H

# Variants of: B4
# Settings: with ip3kb_human ITPKB
# Remark: another data set of the same source
row,effect of a mutation on the interaction,Variant
1,with no effect,R361C

# Variants of: B4
# Settings: with ip3kb_human ITPKB
# Remark: another data set of the same source
row,effect of a mutation on the interaction,Variant
1,with no effect,G386D

# Variants of: B5
# Settings: with irf2_human IRF2, P14316
row,effect of a mutation on the interaction,Variant
1,with no effect,D351H

# Variants of: B5
# Settings: with irf2_human IRF2, P14316
# Remark: another data set of the same source
row,effect of a mutation on the interaction,Variant
1,with no effect,R361C

# Variants of: B5
# Settings: with irf2_human IRF2, P14316
# Remark: another data set of the same source
row,effect of a mutation on the interaction,Variant
1,with no effect,G386D

# Variants of: B6
# Settings: with e2f7_human E2F7, Q96AV8
row,effect of a mutation on the interaction,Variant
1,with no effect,G386D

# Variants of: B6
# Settings: with e2f7_human E2F7, Q96AV8
# Remark: another data set of the same source
row,effect of a mutation on the interaction,Variant
1,with no effect,D351H

# Variants of: B7
# Settings: with aurka_human AURKA
row,effect of a mutation on the interaction,Variant
1,with no effect,G386D

# Variants of: B7
# Settings: with aurka_human AURKA
# Remark: another data set of the same source
row,effect of a mutation on the interaction,Variant
1,with no effect,D351H

# Variants of: B7
# Settings: with aurka_human AURKA
# Remark: another data set of the same source
row,effect of a mutation on the interaction,Variant
1,with no effect,R361C

# Variants of: B7
# Settings: with aurka_human AURKA
# Remark: another data set of the same source
row,effect of a mutation on the interaction,Variant
1,with no effect,R361H
